Here are results for three molecules from patent publication US20030235857A1 (WHITEHEAD INSTITUTE FOR BIOMEDICAL RESEARCH A DELAWARE, published 2003).

B1: Tpk1 fused to the Gal4 DNA binding domain (enzyme, UniProt P04386 1-147, looked up)
chain: MKLLSSIEQACDICRLKKLKCSKEKPKCAKCLKNNWECRYSPKTKRSPLTRAHLTEVESRLERLEQLFLLIFPREDLDMILKMDSLQDIKALLTGLFVQDNVNKDAVTDRLASVETDMPLTLRQHRISATSSSEESSNKGQRQLTVSMSTEEQNGGGQKSLDDRQGEESQKGETSERETTATESGNESKSVEKEGGETQEKPKQPHVTYYNEEQYKQFIAQARVTSGKYSLQDFQILRTLGTGSFGRVHLIRSRHNGRYYAMKVLKKEIVVRLKQVEHTNDERLMLSIVTHPFIIRMWGTFQDAQQIFMIMDYIEGGELFSLLRKSQRFPNPVAKFYAAEVCLALEYLHSKDIIYRDLKPENILLDKNGHIKITDFGFAKYVPDVTYTLCGTPDYIAPEVVSTKPYNKSIDWWSFGILIYEMLAGYTPFYDSNTMKTYEKILNAELRFPPFFNEDVKDLLSRLITRDLSQRLGNLQNGTEDVKNHPWFKEVVWEKLLSRNIETPYEPPIQQGQGDTSQFDKYPEEDINYGVQGEDPYADLFRDF
notes: Two-hybrid bait used for retesting positive clones
B2: Tpk3 fused to the Gal4 DNA binding domain (enzyme, UniProt P04386 1-147, looked up)
chain: MKLLSSIEQACDICRLKKLKCSKEKPKCAKCLKNNWECRYSPKTKRSPLTRAHLTEVESRLERLEQLFLLIFPREDLDMILKMDSLQDIKALLTGLFVQDNVNKDAVTDRLASVETDMPLTLRQHRISATSSSEESSNKGQRQLTVSMYVDPMNNNEIRKLSITAKTETTPDNVGQDIPVNAHSVHEECSSNTPVEINGRNSGKLKEEASAGICLVKKPMLQYRDTSGKYSLSDFQILRTLGTGSFGRVHLIRSNHNGRFYALKTLKKHTIVKLKQVEHTNDERRMLSIVSHPFIIRMWGTFQDSQQVFMVMDYIEGGELFSLLRKSQRFPNPVAKFYAAEVCLALEYLHSKDIIYRDLKPENILLDKNGHIKITDFGFAKYVPDVTYTLCGTPDYIAPEVVSTKPYNKSVDWWSFGVLIYEMLAGYTPFYNSNTMKTYENILNAELKFPPFFHPDAQDLLKKLITRDLSERLGNLQNGSEDVKNHPWFNEVIWEKLLARYIETPYEPPIQQGQGDTSQFDRYPEEEFNYGIQGEDPYMDLMKEF
notes: Two-hybrid bait used for retesting positive clones; also called YKL166c

What all share (test): yeast two-hybrid, GAL4-ADE2 reporter, growth without adenine
Assay [1] has as its target T1, Sfl1 fused to the Gal4 activation domain (Saccharomyces cerevisiae, UniProt P20134 1-766, limits assumed).
T1 construct: also called YOR140w
T1 sequence (looked up): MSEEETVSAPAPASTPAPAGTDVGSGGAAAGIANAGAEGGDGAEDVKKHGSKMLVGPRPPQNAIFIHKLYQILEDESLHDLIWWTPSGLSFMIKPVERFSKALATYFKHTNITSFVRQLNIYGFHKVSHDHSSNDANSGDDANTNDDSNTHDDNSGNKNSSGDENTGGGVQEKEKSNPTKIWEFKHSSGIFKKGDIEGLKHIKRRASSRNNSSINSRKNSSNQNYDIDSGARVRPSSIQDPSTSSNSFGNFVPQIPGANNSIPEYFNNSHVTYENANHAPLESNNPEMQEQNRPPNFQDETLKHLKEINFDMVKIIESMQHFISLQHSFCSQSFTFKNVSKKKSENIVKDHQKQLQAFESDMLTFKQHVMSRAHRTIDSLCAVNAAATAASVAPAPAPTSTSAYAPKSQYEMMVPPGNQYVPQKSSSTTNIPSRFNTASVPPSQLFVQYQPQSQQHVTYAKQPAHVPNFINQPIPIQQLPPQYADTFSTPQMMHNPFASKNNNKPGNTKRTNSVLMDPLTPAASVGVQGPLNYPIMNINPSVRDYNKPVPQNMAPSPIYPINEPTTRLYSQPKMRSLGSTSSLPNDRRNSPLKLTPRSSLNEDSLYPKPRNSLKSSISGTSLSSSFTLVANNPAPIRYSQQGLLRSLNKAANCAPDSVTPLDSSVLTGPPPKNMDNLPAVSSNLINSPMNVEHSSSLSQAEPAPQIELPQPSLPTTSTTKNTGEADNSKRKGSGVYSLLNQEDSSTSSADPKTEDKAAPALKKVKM
An excerpt: (§1) Other additional members of these signal transduction cascades are identified through a variety of standard techniques. First, enhancers and suppressors of phenotypes of mutant strains are isolated using standard techniques known to those skilled in the art (Ausubel, supra). Second, proteins which interact with pathway members are isolated using yeast two-hybrid methods (Fields and Song, Nature 1989, 340:245-246; Chien et al., Proc. Natl. Acad. Sci. USA 1991, 88:9578-9582; Brent and Finley, Annu. Rev. Genet. 1997, 31:663-704). In one example, proteins which specifically interact with an A kinase catalytic subunit Tpk2, and not with related proteins Tpk1 and Tpk3 were identified and shown to be important for pseudohyphal development. […] Similarly, haploid tpk2 mutants were defective for invasive growth and tpk3 mutants were hyperinvasive (FIG. 2A). tpk1 mutants were indistinguishable from wild-type strains as both haploids and diploids. The accentuated filamentation and invasion phenotypes of tpk3 mutants required a functional Tpk2 as tpk2 tpk3 mutants had the same phenotype as tpk2 single mutants. As Tpk2 appeared to be uniquely required for pseudohyphal growth, we used a two-hybrid screen to identify proteins that interact specifically with Tpk2. The intact open reading frame of TPK2 was fused to coding sequence for the Gal4 DNA binding domain and used to screen a library of yeast genomic fragments fused to coding sequence for the Gal4 transcriptional activation domain. Activation of the GAL4-ADE2 reporter, leading to adenine-independent growth of an ade-strain was taken as preliminary evidence for an interaction between the Gal4 DNA binding domain:Tpk2 fusion and the Tpk2 interacting protein fused to the Gal4 activation domain. Positive clones were then retested in the two-hybrid assay with Tpk1, Tpk2, Tpk3, or Dph1 fused to the Gal4 DNA binding domain. DPH1, a gene required for diphthamide biosynthesis, as used to control for interactions that were not specific to the PKA isoforms.

The target in assay [2] is B1.
Description: as §1

In assay [3] the target is B2.
Description: as §1

Take B1: the binding result in assay [1] is on record as “no binding”.

As to B2, the binding result in assay [1] is “no binding”.

B3: Mga1 fused to the Gal4 activation domain (other, Saccharomyces cerevisiae, UniProt P53050 1-456, looked up, not shown: large carriers)
chain: MQPKTFVHQLHAILLEPEVNKWIYWSPTDNTVFFLKPYDPNFSTHVLKRYFKHGNVNSFVRQLHMYGFHKLSHPSPDQSSANNGNVKELVEWKFTHPSGFFFKEANAGILNKIQRKSTGVGKDGKRKNILSPISVSYVDASRLNVLSQQSGPVSAREPSNMFMGSPVHYSTSQSPPHISIPQQQQSSGPYLISSLPPQQPTVNMMRRQSISARMMNSYDYPNQFSTQDSIVQPQQPQQVLSPQALSGPPMKKSGTLSSTDDLKTTSLPIVNYPMPYHPGAFAQQQQQQQQPLPTVPPYSSYSTPFPSMMNSLSNSASNSPALGVCNNNVTLPKKSNISERQALDNHIQTLKNSLSTITDLIEKHINSASQDENKTLTNDAMNKDLRTSLSLLQNSKEEIIQLESKWMSMQSVKTTALPLQETTNTSSTLTSLTSSIIPKSIPIITKGEVATKPASY
notes: also called YGR249w
As to B3, the binding result in assay [2] and in assay [3] was “no binding” throughout.
